The target in test [1] is T1, tag-free LigC1 (6xHis-LigC subjected to thrombin digestion) (M. smegmatis, UniProt A0R5T2 1-348).
T1 construct: ATP-dependent DNA ligase C1 of Mycobacterium smegmatis, locus msmeg_6302; same construct as m2 with the tag cut off by thrombin; The methods say 'LigC', the results 'LigC1'; source: E. coli Origami B pLysS, purified; His-tag removed by a standard thrombin digestion; not shown: 6xHis, N-terminal, cleaved
T1 sequence (looked up): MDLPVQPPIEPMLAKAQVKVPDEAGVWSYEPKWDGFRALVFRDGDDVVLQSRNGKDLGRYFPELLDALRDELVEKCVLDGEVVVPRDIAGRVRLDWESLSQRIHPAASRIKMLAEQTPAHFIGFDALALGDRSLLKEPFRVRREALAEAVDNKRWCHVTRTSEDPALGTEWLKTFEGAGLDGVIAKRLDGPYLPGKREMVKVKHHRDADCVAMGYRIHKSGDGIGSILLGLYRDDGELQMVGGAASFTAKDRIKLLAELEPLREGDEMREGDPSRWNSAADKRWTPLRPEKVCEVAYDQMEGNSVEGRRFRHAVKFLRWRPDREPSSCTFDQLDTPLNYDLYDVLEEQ
The experiment in a line: pull-down; FPG-6xHis or 6xHis-MPG bound to Ni-NTA resin in 50 mM Tris pH 8.0, 150 mM NaCl, 1 h at 4 °C; tag-free LigC or BSA added for 2 h; equimolar proteins; eluted with imidazole; SDS-PAGE and Coomassie staining. As to conditions: both partners purified.

The target in test [2] is T2, DNA ligase C1 (LigC1, msmeg_6302), recombinant, His-tagged construct (M. smegmatis, UniProt A0R5T2 1-348).
T2 construct: ATP-dependent DNA ligase C1 of Mycobacterium smegmatis, locus msmeg_6302; Cloned in pET28; also called 6xHis-LigC; source: E. coli Origami B pLysS, purified (Ni Sepharose, ion exchange, gel filtration)
T2 sequence (looked up): T1 sequence (looked up)
Nature of the test: far-Western, overlay or dot blot; recombinant proteins slot-blotted on a membrane (3 μg of the possible interactors, 50 ng of the probed protein), blocked in TBS, 0.05% Tween 20, 5% milk; incubated with 5 μg ml^−1 Prim-PolC or LigC1; detected with Prim-PolC- or LigC1-specific antibodies. The settings on record: both partners purified.

B1: FPG (MutM) bifunctional glycosylase, recombinant (enzyme, M. smegmatis, UniProt A0QV21 1-285, looked up)
chain: MPELPEVEVVRRGLAEHVTGKTITGVRVHHPRAVRRHEAGPADLTARLLDVRITGTGRRGKYLWLTLDDSAALVVHLGMSGQMLLGPIRDTRHLRIAAVLDDGTALSFVDQRTFGGWQLTEMVTVDGTDVPEPVAHIARDPLDPLFDRDRVVTVLRGKHSEIKRQLLDQTVVSGIGNIYADEALWRTKINGARIAAALPRRRLAELLDAAAEVMTDALGQGGTSFDSLYVNVNGESGYFDRSLDAYGREGEPCRRCGAIMRREKFMNRSSFYCPRCQPRPRVPRV
notes: Bifunctional DNA glycosylase FPG (MutM) of Mycobacterium smegmatis; Cloned in pET28; also called FPG-6xHis; source: E. coli Origami B pLysS, purified (Ni Sepharose, ion exchange, gel filtration); not shown: 6xHis, C-terminal, kept
For B1, the binding result in test [1] and in test [2] was “binds” in each case.

These data come from paper PMC5663958, “DNA Ligase C and Prim-PolC participate in base excision repair in mycobacteria” (Nature Communications, 2017).
